T1: OsMADS45 aa 83-234 (Oryza sativa, UniProt P0C5B0 83-234)
T1 construct: prey, AD fusion; also called PN20231
T1 sequence: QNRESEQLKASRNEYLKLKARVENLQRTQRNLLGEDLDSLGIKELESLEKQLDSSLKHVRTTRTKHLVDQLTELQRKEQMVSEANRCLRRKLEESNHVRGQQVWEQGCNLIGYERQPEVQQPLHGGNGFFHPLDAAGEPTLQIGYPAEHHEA

T2: OsMADS8 aa 75-238 (Oryza sativa, UniProt Q9SAR1 75-238)
T2 construct: prey, AD fusion; also called PN20778
T2 sequence: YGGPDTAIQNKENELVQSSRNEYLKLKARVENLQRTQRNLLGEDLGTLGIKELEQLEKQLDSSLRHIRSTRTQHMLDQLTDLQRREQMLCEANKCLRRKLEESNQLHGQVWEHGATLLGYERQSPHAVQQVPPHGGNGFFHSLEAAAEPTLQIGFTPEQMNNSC

T3: OsMADS8 aa 79-248 (Oryza sativa, UniProt Q9SAR1 79-248)
T3 construct: prey, AD fusion; also called PN20778
T3 sequence: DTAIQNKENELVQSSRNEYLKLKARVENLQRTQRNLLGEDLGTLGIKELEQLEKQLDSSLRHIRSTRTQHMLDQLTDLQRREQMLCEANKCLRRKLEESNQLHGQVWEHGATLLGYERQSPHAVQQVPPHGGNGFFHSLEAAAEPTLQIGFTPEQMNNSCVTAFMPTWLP

T4: OsMADS1 aa 70-257 (Oryza sativa, UniProt A2XDY1 70-257)
T4 construct: prey, AD fusion; also called PN19788
T4 sequence: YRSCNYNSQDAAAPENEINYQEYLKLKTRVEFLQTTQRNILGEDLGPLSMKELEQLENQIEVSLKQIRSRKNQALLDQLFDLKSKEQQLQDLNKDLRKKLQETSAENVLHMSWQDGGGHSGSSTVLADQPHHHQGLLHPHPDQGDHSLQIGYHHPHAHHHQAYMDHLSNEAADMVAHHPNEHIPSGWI

T5: OsRAP1B aa 1-179 (Oryza sativa, UniProt Q10CQ1 1-179)
T5 construct: prey, AD fusion; also called PN20232
T5 sequence: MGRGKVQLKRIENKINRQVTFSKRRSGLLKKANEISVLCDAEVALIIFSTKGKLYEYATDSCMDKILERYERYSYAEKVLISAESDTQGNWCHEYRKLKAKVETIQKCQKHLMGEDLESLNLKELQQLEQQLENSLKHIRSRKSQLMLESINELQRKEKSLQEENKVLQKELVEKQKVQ

T6: OsMADS45 aa 61-248 (Oryza sativa, UniProt P0C5B0 61-248)
T6 construct: prey, AD fusion; also called PN20231
T6 sequence: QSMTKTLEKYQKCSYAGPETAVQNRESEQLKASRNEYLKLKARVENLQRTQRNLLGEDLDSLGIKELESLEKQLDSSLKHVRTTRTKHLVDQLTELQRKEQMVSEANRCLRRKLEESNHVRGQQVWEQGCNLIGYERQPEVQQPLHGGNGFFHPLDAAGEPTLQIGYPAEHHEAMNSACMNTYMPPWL

T7: OsMADS45 aa 50-198 (Oryza sativa, UniProt P0C5B0 50-198)
T7 construct: bait, Gal4 DBD fusion; also called PN20231; O. sativa MADS box protein MADS45
T7 sequence: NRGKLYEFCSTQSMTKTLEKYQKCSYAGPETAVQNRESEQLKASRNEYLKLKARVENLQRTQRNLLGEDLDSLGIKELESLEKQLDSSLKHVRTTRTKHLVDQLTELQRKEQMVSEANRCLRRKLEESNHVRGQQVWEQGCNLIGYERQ

T8: OsSGT1 aa 200-368 (Oryza sativa, UniProt Q0JL44 200-367)
T8 construct: bait, Gal4 DBD fusion; also called PN20285
T8 sequence: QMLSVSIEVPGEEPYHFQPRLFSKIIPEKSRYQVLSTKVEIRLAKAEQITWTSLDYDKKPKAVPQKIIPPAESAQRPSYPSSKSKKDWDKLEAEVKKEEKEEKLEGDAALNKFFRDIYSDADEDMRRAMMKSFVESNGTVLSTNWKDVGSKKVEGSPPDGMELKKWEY

T9: OsMADS45 aa 56-249 (Oryza sativa, UniProt P0C5B0 56-249)
T9 construct: prey, AD fusion; also called PN20231
T9 sequence: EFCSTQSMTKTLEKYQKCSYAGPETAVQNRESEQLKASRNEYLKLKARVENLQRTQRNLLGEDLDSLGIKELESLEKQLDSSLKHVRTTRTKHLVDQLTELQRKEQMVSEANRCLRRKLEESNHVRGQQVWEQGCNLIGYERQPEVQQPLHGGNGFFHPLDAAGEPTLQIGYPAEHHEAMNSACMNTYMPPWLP

B1: OsPN29117 aa 11-160 (other)
chain: GPAVRLRVSHGASFRDVAVPAHSTFGELKGVLTQATGVEPERQRLFFRGKEKSDNEFLHTAGVKDGAKLLLLEKPAPANVEQRAEPVIMDESMMKACEAVGRVRAEVDRLSAKVCDLEKSVFAGRKIEDKDFVVLTELLMMELLKLDGIE
notes: prey, AD fusion
B2: OsMADS6 aa 50-200 (other)
chain: SRGKLYEFGSAGITKTLERYQHCCYNAQDSNNALSETQSWYHEMSKLKAKFEALQRTQRHLLGEDLGPLSVKELQQLEKQLECALSQARQRKTQLMMEQVEELRRKERQLGEINRQLKHKLEVEGSTSNYRAMQQASWAQGAVVENGAAYV
notes: bait, Gal4 DBD fusion; also called PN20233
B3: OsRAP1B aa 30-180 (other)
chain: KKANEISVLCDAEVALIIFSTKGKLYEYATDSCMDKILERYERYSYAEKVLISAESDTQGNWCHEYRKLKAKVETIQKCQKHLMGEDLESLNLKELQQLEQQLENSLKHIRSRKSQLMLESINELQRKEKSLQEENKVLQKELVEKQKVQK
notes: bait, Gal4 DBD fusion; also called PN20232
B4: OsPN23495 aa 12-198 (other)
chain: PPAAAEDGRVTSHVDPFLVEALDNPRHRLMVLRMAMDIQKFMQNPQLHEFEFQHFPTSYLRCAAHRVAQHYGLETTVADSLVDGSVSKIVAKKTSESKLPVIALSEVPSKQARNEHEAAEKLKFVICPRPKAFQNGAGDAGAKNNAARTVEERIEEYNKARARIFNGSISDIEGTSDLGALSVARDE
notes: prey, AD fusion
B5: OsPN29117 aa 29-160 (other)
chain: VPAHSTFGELKGVLTQATGVEPERQRLFFRGKEKSDNEFLHTAGVKDGAKLLLLEKPAPANVEQRAEPVIMDESMMKACEAVGRVRAEVDRLSAKVCDLEKSVFAGRKIEDKDFVVLTELLMMELLKLDGIE
notes: prey, AD fusion
B6: OsPN23495 aa 39-165 (other)
chain: RLMVLRMAMDIQKFMQNPQLHEFEFQHFPTSYLRCAAHRVAQHYGLETTVADSLVDGSVSKIVAKKTSESKLPVIALSEVPSKQARNEHEAAEKLKFVICPRPKAFQNGAGDAGAKNNAARTVEERI
notes: prey, AD fusion; also called Novel protein PN23495
B7: OsRAP1B aa 1-188 (other)
chain: MGRGKVQLKRIENKINRQVTFSKRRSGLLKKANEISVLCDAEVALIIFSTKGKLYEYATDSCMDKILERYERYSYAEKVLISAESDTQGNWCHEYRKLKAKVETIQKCQKHLMGEDLESLNLKELQQLEQQLENSLKHIRSRKSQLMLESINELQRKEKSLQEENKVLQKELVEKQKVQKQQLQWDQT
notes: prey, AD fusion; also called PN20232
B8: OsSGT1 aa 9-227 (other)
chain: LESKAKAAFVDDDFELAAELYTQAIEASPATAELYADRAQAHIKLGNYTEAVADANKAIELDPSMHKAYLRKGAACIRLEEYQTAKAALELGYSFASGDSRFTRLMKECDERIAEELTEVPVKKAEDGAAAPSVASFVEEKDDAANMDNTPPMVEVKPKYRHDFYNSATEVVLTIFAKGVPAENVVVDFGEQMLSVSIEVPGEEPYHFQPRLFSKIIPE
notes: prey, AD fusion; also called PN20285
B9: PN23949 aa 244-418 (other)
chain: HKLKSSLILMPMVSLLLLLLIRVLGRNRISPSPALSTLPKDEVERMVEEADKFAQEDKEKRDAIDTKNQADSVVYQTEKQLKELGDKVPAPVKEKVDAKLNELKEAIAGGSTQSMKDAMAALNEEVMQIGQAMYNQQPNAGAAGPTPGADAGPTSSGGKGPNDGDVIDADFTDSN
notes: prey, AD fusion; also called HSP70-like
B10: OsFDRMADS8 aa 60-160 (other)
chain: APSLQKTIDRYKAYTKDHVNNKTIQQDIQQVKDDTLGLAKKLEALDESRRKILGENLEGCSIEELRGLEMKLEKSLHNIRLKKTELLERQIAKLKEKERTL
notes: bait, Gal4 DBD fusion; also called PN20698

How the values were obtained:
OsHSP70 aa 138-360 = biological target: T10, OsHSP70 aa 138-360 (Oryza sativa); assay: Y2H; output trait library
T10 construct: bait, Gal4 DBD fusion; also called PN20775; heat shock protein hsp70
Summary of the method: (§1)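 Rice protein fragments, each defined by an amino-acid range, served as bait against rice prey clone libraries in an automated, high-throughput yeast two-hybrid screen supplied by Myriad Genetics Inc. Prey clones that interacted were retrieved from the output trait library. The sequences encoding the retrieved fragments were compared against databases by BLAST analysis to identify the full-length genes. Each value records whether an interaction was detected.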

OsMADS45 aa 83-234 = biological target: T1, OsMADS45 aa 83-234; assay: Y2H; output trait library
Summary of the method: (§2)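 Protein-protein interactions were detected with an automated, high-throughput yeast two-hybrid assay provided by Myriad Genetics Inc. (Salt Lake City, Utah). A bait clone encoding a defined amino-acid fragment of a rice protein was screened against a rice prey library, either the input trait or the output trait library. Prey clones were retrieved, and their encoding sequences were compared by BLAST against databases to identify the interacting proteins.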

OsMADS8 aa 75-238 = biological target: T2, OsMADS8 aa 75-238; assay: Y2H; output trait library
Summary of the method: as §2

OsMADS8 aa 79-248 = biological target: T3, OsMADS8 aa 79-248; assay: Y2H; output trait library
Summary of the method: as §2

OsMADS1 aa 70-257 = biological target: T4, OsMADS1 aa 70-257; assay: Y2H; output trait library
Summary of the method: as §2

OsRAP1B aa 1-179 = biological target: T5, OsRAP1B aa 1-179; assay: Y2H; output trait library
Summary of the method: as §2

OsMADS45 aa 61-248 = biological target: T6, OsMADS45 aa 61-248; assay: Y2H; output trait library
Summary of the method: as §2

OsMADS45 aa 50-198 = biological target: T7, OsMADS45 aa 50-198; assay: Y2H; input trait library
Summary of the method: as §2

OsMADS6 aa 50-200 = biological target: B2; assay: Y2H; input trait library
Summary of the method: as §2

OsSGT1 aa 200-368 = biological target: T8, OsSGT1 aa 200-368; assay: Y2H; output trait library
Summary of the method: as §1

OsMADS45 aa 56-249 = biological target: T9, OsMADS45 aa 56-249; assay: Y2H; output trait library
Summary of the method: as §2

T10 sequence (chain, as listed by the source): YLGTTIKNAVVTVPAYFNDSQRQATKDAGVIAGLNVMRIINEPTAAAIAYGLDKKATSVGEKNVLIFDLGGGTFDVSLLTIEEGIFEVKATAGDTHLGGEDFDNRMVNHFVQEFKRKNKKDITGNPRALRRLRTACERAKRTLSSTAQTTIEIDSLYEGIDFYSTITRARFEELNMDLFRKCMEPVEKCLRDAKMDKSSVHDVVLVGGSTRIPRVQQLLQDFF

Binder: B1
binding result (OsHSP70 aa 138-360): binds

Binder: B2
binding result (OsMADS45 aa 83-234): binds
binding result (OsMADS8 aa 75-238): binds
binding result (OsMADS8 aa 79-248): binds
binding result (OsMADS1 aa 70-257): binds
binding result (OsRAP1B aa 1-179): binds

Binder: B3
binding result (OsMADS45 aa 61-248): binds

Binder: B4
binding result (OsMADS45 aa 50-198): binds

Binder: B5
binding result (OsHSP70 aa 138-360): binds

Binder: B6
binding result (OsMADS45 aa 50-198): binds

Binder: B7
binding result (OsMADS6 aa 50-200): binds

Binder: B8
binding result (OsSGT1 aa 200-368): binds

Binder: B9
binding result (OsSGT1 aa 200-368): binds

Binder: B10
binding result (OsMADS45 aa 56-249): binds

From US20060253917A1 (published 2006)
